Laboratory results as given in the supplement of paper PMC10126150.
± gives the standard deviation of the averaged measurements.

Tested on: ATP
Experiment: switch fluorescence ratio, 500 uM ATP over buffer (Cy3 cluster intensity, sum of 5 cycles each) (fold (ratio)); higher = stronger signal-on switching upon ATP binding; sequences stand for … in TCGTCGGCAGCGTCAGATGTGTATAAGAGACAGTTTTTTTTTTTTTTTTTTTTTTTTT…TC
Settings: aptamer strand: ATP DNA aptamer (quencher-CACCTGGGGGAGTATTGCGGAGGAAGG + anchor), 100 nM annealed; ATP concentration: 500 uM
Outline: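 Switching-strand clusters labelled with Cy3 on a modified Illumina MiSeq flow-cell were annealed to 100 nM quencher-labelled ATP aptamer, imaged in selection buffer, and re-imaged after 15 min with 500 uM ATP at 22 °C. This was done over five cycles with NaOH stripping and re-annealing in between. The fluorescence ratio is summed target-cycle over summed buffer-cycle Cy3 intensity per cluster, averaged per switch-domain sequence, excluding clusters outside 100-1000 RFU.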
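Also: ATP exposure 15 min at 22 °C before imaging.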

**Q.** For AAGAGAAGTT, which switch fluorescence ratio is on record?
**A.** The switch fluorescence ratio was 0.9938 ± 0.0088.

**Q.** With TTTTGGTGTG as the sequence, how does the switch fluorescence ratio read?
**A.** Its switch fluorescence ratio is 1.01 ± 0.026.

**Q.** Which switch fluorescence ratio does the source give for GGGTTCGTTC here?
**A.** Its switch fluorescence ratio is 0.989 ± 0.054.

**Q.** Which switch fluorescence ratio does the source give for ATCATCTTGT here?
**A.** The switch fluorescence ratio was 1.042 ± 0.0015.

**Q.** How did the switch fluorescence ratio turn out when ATAGGATGCC was run?
**A.** Its switch fluorescence ratio is 0.999 ± 0.019.

**Q.** How did the switch fluorescence ratio turn out when CGCTATTGGG was run?
**A.** The switch fluorescence ratio was 1.046 ± 0.0086.

**Q.** ATAATCGGGA was tested. Which switch fluorescence ratio did it give?
**A.** Its switch fluorescence ratio is 0.994 ± 0.034.

**Q.** Which switch fluorescence ratio does the source give for TTACTACCGG here?
**A.** The switch fluorescence ratio was 1.04 ± 0.012.

**Q.** For AGCACGTTAT, which switch fluorescence ratio is on record?
**A.** Its switch fluorescence ratio is 1.256 ± 0.012.

**Q.** With CACCTTTACA as the sequence, how does the switch fluorescence ratio read?
**A.** Its switch fluorescence ratio is 1.16 ± 0.034.

**Q.** With CCGTTGACCG as the sequence, how does the switch fluorescence ratio read?
**A.** The switch fluorescence ratio was 1.07 ± 0.057.

**Q.** Which switch fluorescence ratio does the source give for TAGGGCGTTC here?
**A.** Its switch fluorescence ratio is 1.02 ± 0.079.

**Q.** TTCTGGGAAA was tested. Which switch fluorescence ratio did it give?
**A.** The switch fluorescence ratio was 0.9997 ± 0.0057.

**Q.** How did the switch fluorescence ratio turn out when CGCTTTTTTT was run?
**A.** Its switch fluorescence ratio is 1.01 ± 0.025.

**Q.** Which switch fluorescence ratio does the source give for AGTAATTTGT here?
**A.** The switch fluorescence ratio was 0.988 ± 0.019.

**Q.** With TCAGGAATGG as the sequence, how does the switch fluorescence ratio read?
**A.** The switch fluorescence ratio was 1.055 ± 0.0069.

**Q.** Which switch fluorescence ratio does the source give for GTGTTTTCCA here?
**A.** The switch fluorescence ratio was 0.985 ± 0.036.

**Q.** AAAGGAGAGC was tested. Which switch fluorescence ratio did it give?
**A.** The switch fluorescence ratio was 0.973 ± 0.087.

**Q.** GGTCCTGGGA was tested. Which switch fluorescence ratio did it give?
**A.** The switch fluorescence ratio was 1.02 ± 0.059.

**Q.** How did the switch fluorescence ratio turn out when GTTGAGAGTG was run?
**A.** Its switch fluorescence ratio is 1 ± 0.049.

**Q.** How did the switch fluorescence ratio turn out when GTGAGGATTG was run?
**A.** The switch fluorescence ratio was 0.98581 ± 8e-05.

**Q.** AAGGTCGTTT was tested. Which switch fluorescence ratio did it give?
**A.** The switch fluorescence ratio was 0.9768 ± 0.003.

**Q.** For TGCGGCGGGG, which switch fluorescence ratio is on record?
**A.** The switch fluorescence ratio was 1.07 ± 0.035.

**Q.** With TGGAGTCCAT as the sequence, how does the switch fluorescence ratio read?
**A.** Its switch fluorescence ratio is 1.026 ± 0.0098.

**Q.** With CGGGTAGCG as the sequence, how does the switch fluorescence ratio read?
**A.** Its switch fluorescence ratio is 0.969 ± 0.013.

**Q.** For AAAAAGTGAG, which switch fluorescence ratio is on record?
**A.** The switch fluorescence ratio was 0.973 ± 0.042.

**Q.** Which switch fluorescence ratio does the source give for TTTTTCTGTT here?
**A.** Its switch fluorescence ratio is 0.984 ± 0.039.

**Q.** How did the switch fluorescence ratio turn out when TAACGGTGTA was run?
**A.** Its switch fluorescence ratio is 1.02 ± 0.026.

**Q.** For ACTTGTGGGG, which switch fluorescence ratio is on record?
**A.** Its switch fluorescence ratio is 0.973 ± 0.037.

**Q.** For AGTCTGACCA, which switch fluorescence ratio is on record?
**A.** Its switch fluorescence ratio is 1.018 ± 0.005.

**Q.** Which switch fluorescence ratio does the source give for TTGAGTGTCA here?
**A.** Its switch fluorescence ratio is 0.9852 ± 0.007.

**Q.** For GAAGGTGGGA, which switch fluorescence ratio is on record?
**A.** Its switch fluorescence ratio is 1.038 ± 0.0092.

**Q.** Which switch fluorescence ratio does the source give for AGGGTCGGGA here?
**A.** The switch fluorescence ratio was 0.9838 ± 0.0013.

**Q.** GGTAGGATAG was tested. Which switch fluorescence ratio did it give?
**A.** Its switch fluorescence ratio is 0.9728 ± 0.0016.

**Q.** How did the switch fluorescence ratio turn out when AGGTTGGAGG was run?
**A.** The switch fluorescence ratio was 0.976 ± 0.018.

**Q.** CGGCTACGGG was tested. Which switch fluorescence ratio did it give?
**A.** Its switch fluorescence ratio is 0.995 ± 0.046.

**Q.** With TGTATGC as the sequence, how does the switch fluorescence ratio read?
**A.** The switch fluorescence ratio was 0.958 ± 0.051.

**Q.** For TTATTGTGTG, which switch fluorescence ratio is on record?
**A.** The switch fluorescence ratio was 1 ± 0.023.

**Q.** For TGTGAGTCGG, which switch fluorescence ratio is on record?
**A.** Its switch fluorescence ratio is 0.948 ± 0.03.

**Q.** For ACACACTCAA, which switch fluorescence ratio is on record?
**A.** The switch fluorescence ratio was 1.28 ± 0.029.

**Q.** With AAGGGGCGGA as the sequence, how does the switch fluorescence ratio read?
**A.** Its switch fluorescence ratio is 0.97 ± 0.016.

**Q.** With CGGGGGCTTG as the sequence, how does the switch fluorescence ratio read?
**A.** The switch fluorescence ratio was 0.975 ± 0.02.

**Q.** For CGTGGTCGTG, which switch fluorescence ratio is on record?
**A.** The switch fluorescence ratio was 0.9672 ± 0.00049.

**Q.** Which switch fluorescence ratio does the source give for TCTCTGGCAG here?
**A.** Its switch fluorescence ratio is 1.17 ± 0.17.

**Q.** How did the switch fluorescence ratio turn out when GGCATTACTA was run?
**A.** Its switch fluorescence ratio is 1.21 ± 0.022.

**Q.** How did the switch fluorescence ratio turn out when TACTCGGCTC was run?
**A.** The switch fluorescence ratio was 1.66 ± 0.11.

**Q.** With GTGTTCCGTG as the sequence, how does the switch fluorescence ratio read?
**A.** The switch fluorescence ratio was 1.01 ± 0.015.

**Q.** How did the switch fluorescence ratio turn out when TTGCATAGGG was run?
**A.** The switch fluorescence ratio was 1.02 ± 0.023.

**Q.** With AGGATTTT as the sequence, how does the switch fluorescence ratio read?
**A.** The switch fluorescence ratio was 0.955 ± 0.066.

**Q.** GTCGAGGGTC was tested. Which switch fluorescence ratio did it give?
**A.** Its switch fluorescence ratio is 0.944 ± 0.03.

**Q.** TCCAGGTGAC was tested. Which switch fluorescence ratio did it give?
**A.** The switch fluorescence ratio was 4.19 ± 0.38.

**Q.** For TCCAAACCCC, which switch fluorescence ratio is on record?
**A.** The switch fluorescence ratio was 1.12 ± 0.046.

**Q.** AAGAAATGTA was tested. Which switch fluorescence ratio did it give?
**A.** Its switch fluorescence ratio is 1.013 ± 0.0063.

**Q.** For AAAGAATTGG, which switch fluorescence ratio is on record?
**A.** Its switch fluorescence ratio is 0.975 ± 0.045.

**Q.** GGGGGATCCG was tested. Which switch fluorescence ratio did it give?
**A.** Its switch fluorescence ratio is 0.983 ± 0.019.

**Q.** With TTGTGTGTGT as the sequence, how does the switch fluorescence ratio read?
**A.** The switch fluorescence ratio was 0.993 ± 0.019.

**Q.** With CGGGATATGG as the sequence, how does the switch fluorescence ratio read?
**A.** The switch fluorescence ratio was 1.03 ± 0.045.

**Q.** GTAATCTGTT was tested. Which switch fluorescence ratio did it give?
**A.** The switch fluorescence ratio was 0.989 ± 0.075.

**Q.** With ATCTTATGTT as the sequence, how does the switch fluorescence ratio read?
**A.** Its switch fluorescence ratio is 0.987 ± 0.025.

**Q.** For GCCATCGATC, which switch fluorescence ratio is on record?
**A.** Its switch fluorescence ratio is 1.017 ± 0.0079.

**Q.** TGTCGGATTA was tested. Which switch fluorescence ratio did it give?
**A.** Its switch fluorescence ratio is 0.979 ± 0.011.

**Q.** CTACTAGAGC was tested. Which switch fluorescence ratio did it give?
**A.** The switch fluorescence ratio was 1.02 ± 0.044.

**Q.** Which switch fluorescence ratio does the source give for TCCAGAGTGC here?
**A.** Its switch fluorescence ratio is 1.017 ± 0.0033.

**Q.** For CCGGTATATC, which switch fluorescence ratio is on record?
**A.** Its switch fluorescence ratio is 2.517 ± 0.025.

**Q.** How did the switch fluorescence ratio turn out when AGAATAAGTT was run?
**A.** The switch fluorescence ratio was 1.013 ± 0.0018.

**Q.** Which switch fluorescence ratio does the source give for CGCGTCCGTC here?
**A.** Its switch fluorescence ratio is 1.03 ± 0.056.

**Q.** Which switch fluorescence ratio does the source give for CGGATCGTTG here?
**A.** Its switch fluorescence ratio is 0.9655 ± 0.0084.

**Q.** GATTGAGGGG was tested. Which switch fluorescence ratio did it give?
**A.** The switch fluorescence ratio was 1.01 ± 0.017.

**Q.** How did the switch fluorescence ratio turn out when TTTTCTCTTA was run?
**A.** Its switch fluorescence ratio is 1.0182 ± 0.00039.

**Q.** With AATTGTGTAT as the sequence, how does the switch fluorescence ratio read?
**A.** The switch fluorescence ratio was 0.973 ± 0.026.

**Q.** With TTTCGGAAAC as the sequence, how does the switch fluorescence ratio read?
**A.** Its switch fluorescence ratio is 1.1 ± 0.017.

**Q.** How did the switch fluorescence ratio turn out when AACTCTGTCT was run?
**A.** The switch fluorescence ratio was 1 ± 0.032.

**Q.** For GGGGGAGCGG, which switch fluorescence ratio is on record?
**A.** Its switch fluorescence ratio is 0.992 ± 0.033.

**Q.** For TTTTTTCCAC, which switch fluorescence ratio is on record?
**A.** Its switch fluorescence ratio is 1.01 ± 0.028.

**Q.** With GGGGAATCTA as the sequence, how does the switch fluorescence ratio read?
**A.** Its switch fluorescence ratio is 0.997 ± 0.022.

**Q.** Which switch fluorescence ratio does the source give for ATGTTAAATT here?
**A.** The switch fluorescence ratio was 0.976 ± 0.014.

**Q.** CGCTAGACAC was tested. Which switch fluorescence ratio did it give?
**A.** The switch fluorescence ratio was 1.49 ± 0.054.
